The labels stand for the following.
T1: FcγRIIa R (FcγRIIa, allotype with Arg at position 131), extracellular domain with C-terminal His tag (human, UniProt P12318 34-217)
T1 construct: extracellular domain; also called FcγRIIa R type; 2aR
T1 sequence (looked up): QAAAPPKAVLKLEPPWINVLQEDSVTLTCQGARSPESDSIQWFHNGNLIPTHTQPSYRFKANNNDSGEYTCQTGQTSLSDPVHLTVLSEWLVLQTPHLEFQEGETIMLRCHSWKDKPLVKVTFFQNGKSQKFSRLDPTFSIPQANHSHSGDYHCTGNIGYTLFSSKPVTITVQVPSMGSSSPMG

B1: GpH7-B3 variant K334_07I/GpL16-k0 (antibody, human IgG1, kappa)
heavy: not shown
light: DIVMTQSPLSLPVTPGEPASISCQASESLVHSNRNTYLHWYLQKPGQSPQLLIYKVSNRFSGVPDRFSGSGSGTDFTLKISRVEAEDVGVYYCSQNTHVPPTFGQGTKVEIERTVAAPSVFIFPPSDEQLKSGTASVVCLLNNFYPREAKVQWKVDNALQSGNSQESVTEQDSKDSTYSLSSTLTLSKADYEKHKVYACEVTHQGLSSPVTKSFNRGEC
notes: also called Ho Ab K334_07I
B2: GpH7-B3 variant H268_09D/GpL16-k0 (antibody, human IgG1, kappa)
heavy: not shown
light: B1 light
notes: also called Ho Ab H268_09D
B3: GpH7-B3 variant K326_14T/GpL16-k0 (antibody, human IgG1, kappa)
heavy: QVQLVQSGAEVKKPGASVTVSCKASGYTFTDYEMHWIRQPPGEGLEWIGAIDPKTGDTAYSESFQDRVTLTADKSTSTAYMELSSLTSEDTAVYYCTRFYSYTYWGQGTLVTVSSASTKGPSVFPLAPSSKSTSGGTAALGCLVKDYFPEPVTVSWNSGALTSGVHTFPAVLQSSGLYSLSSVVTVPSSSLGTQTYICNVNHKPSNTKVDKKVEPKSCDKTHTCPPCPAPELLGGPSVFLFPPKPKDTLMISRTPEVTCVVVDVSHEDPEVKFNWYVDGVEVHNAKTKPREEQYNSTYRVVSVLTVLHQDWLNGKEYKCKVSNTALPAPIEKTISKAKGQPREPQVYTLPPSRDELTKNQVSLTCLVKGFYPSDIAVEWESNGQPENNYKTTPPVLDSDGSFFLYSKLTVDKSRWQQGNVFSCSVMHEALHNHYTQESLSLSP
light: B1 light
notes: also called Ho Ab K326_14T
B4: GpH7-B3 variant I336_06M/GpL16-k0 (antibody, human IgG1, kappa)
heavy: not shown
light: B1 light
notes: also called Ho Ab I336_06M
B5: GpH7-B3 variant I332_14T/GpL16-k0 (antibody, human IgG1, kappa)
heavy: not shown
light: B1 light
notes: also called Ho Ab I332_14T
B6: GpH7-B3 variant K334_02A/GpL16-k0 (antibody, human IgG1, kappa)
heavy: not shown
light: B1 light
notes: also called Ho Ab K334_02A
B7: GpH7-B3 variant E333_16H/GpL16-k0 (antibody, human IgG1, kappa)
heavy: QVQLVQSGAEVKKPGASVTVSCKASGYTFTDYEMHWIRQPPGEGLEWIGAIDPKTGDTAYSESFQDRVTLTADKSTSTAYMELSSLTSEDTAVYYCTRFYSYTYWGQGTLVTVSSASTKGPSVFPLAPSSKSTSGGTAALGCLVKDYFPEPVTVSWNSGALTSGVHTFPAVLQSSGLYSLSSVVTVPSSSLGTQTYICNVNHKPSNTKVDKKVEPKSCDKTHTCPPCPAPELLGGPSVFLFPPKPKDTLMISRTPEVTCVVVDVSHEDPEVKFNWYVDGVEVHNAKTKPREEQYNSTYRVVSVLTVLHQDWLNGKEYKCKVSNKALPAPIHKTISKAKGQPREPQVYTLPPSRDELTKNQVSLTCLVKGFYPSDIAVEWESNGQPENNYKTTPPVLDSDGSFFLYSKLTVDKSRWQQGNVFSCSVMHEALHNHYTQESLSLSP
light: B1 light
notes: also called Ho Ab E333_16H
B8: GpH7-B3 variant I332_09D/GpL16-k0 (antibody, human IgG1, kappa)
heavy: not shown
light: B1 light
notes: also called Ho Ab I332_09D
B9: GpH7-B3 variant K326_09D/GpL16-k0 (antibody, human IgG1, kappa)
heavy: not shown
light: B1 light
notes: also called Ho Ab K326_09D
B10: GpH7-B3 variant K334_18N/GpL16-k0 (antibody, human IgG1, kappa)
heavy: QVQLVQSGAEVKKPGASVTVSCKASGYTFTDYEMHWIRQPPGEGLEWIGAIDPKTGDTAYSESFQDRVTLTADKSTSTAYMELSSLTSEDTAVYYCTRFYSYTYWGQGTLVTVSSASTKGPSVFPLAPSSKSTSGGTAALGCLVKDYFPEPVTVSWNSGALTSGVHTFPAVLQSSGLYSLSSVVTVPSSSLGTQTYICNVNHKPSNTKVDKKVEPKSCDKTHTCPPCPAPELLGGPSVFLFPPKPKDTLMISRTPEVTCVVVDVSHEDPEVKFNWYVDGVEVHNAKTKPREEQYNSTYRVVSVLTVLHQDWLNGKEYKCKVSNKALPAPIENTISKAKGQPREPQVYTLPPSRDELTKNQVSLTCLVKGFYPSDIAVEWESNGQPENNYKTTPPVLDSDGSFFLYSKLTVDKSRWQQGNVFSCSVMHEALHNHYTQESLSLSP
light: B1 light
notes: also called Ho Ab K334_18N
B11: GpH7-B3 variant H268_13S/GpL16-k0 (antibody, human IgG1, kappa)
heavy: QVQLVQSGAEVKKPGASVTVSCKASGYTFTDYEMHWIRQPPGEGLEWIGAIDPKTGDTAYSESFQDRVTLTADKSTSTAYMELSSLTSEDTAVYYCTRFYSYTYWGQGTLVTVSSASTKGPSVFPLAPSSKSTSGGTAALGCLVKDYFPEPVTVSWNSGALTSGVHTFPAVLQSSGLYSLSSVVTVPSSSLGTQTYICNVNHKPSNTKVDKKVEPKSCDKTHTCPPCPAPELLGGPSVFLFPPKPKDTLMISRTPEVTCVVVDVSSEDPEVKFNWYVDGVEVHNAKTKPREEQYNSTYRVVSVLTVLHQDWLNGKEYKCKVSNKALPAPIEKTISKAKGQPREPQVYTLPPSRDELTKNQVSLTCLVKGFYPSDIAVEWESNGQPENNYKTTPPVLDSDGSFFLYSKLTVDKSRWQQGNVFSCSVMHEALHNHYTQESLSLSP
light: B1 light
notes: also called Ho Ab H268_13S
B12: GpH7-B3 variant I332_10E/GpL16-k0 (antibody, human IgG1, kappa)
heavy: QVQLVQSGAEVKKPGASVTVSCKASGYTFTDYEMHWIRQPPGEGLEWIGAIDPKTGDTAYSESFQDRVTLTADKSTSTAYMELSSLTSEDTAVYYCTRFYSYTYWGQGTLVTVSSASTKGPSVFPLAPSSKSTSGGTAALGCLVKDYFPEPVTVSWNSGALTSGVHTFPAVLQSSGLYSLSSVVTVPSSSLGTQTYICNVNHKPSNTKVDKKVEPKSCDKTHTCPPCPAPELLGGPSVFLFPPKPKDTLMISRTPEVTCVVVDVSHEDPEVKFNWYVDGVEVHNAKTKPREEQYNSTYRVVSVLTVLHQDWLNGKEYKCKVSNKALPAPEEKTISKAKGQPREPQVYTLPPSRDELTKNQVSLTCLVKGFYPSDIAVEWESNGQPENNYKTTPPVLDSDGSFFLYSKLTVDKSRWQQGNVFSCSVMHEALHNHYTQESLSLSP
light: B1 light
notes: also called Ho Ab I332_10E
B13: GpH7-B3 variant A330_20W/GpL16-k0 (antibody, human IgG1, kappa)
heavy: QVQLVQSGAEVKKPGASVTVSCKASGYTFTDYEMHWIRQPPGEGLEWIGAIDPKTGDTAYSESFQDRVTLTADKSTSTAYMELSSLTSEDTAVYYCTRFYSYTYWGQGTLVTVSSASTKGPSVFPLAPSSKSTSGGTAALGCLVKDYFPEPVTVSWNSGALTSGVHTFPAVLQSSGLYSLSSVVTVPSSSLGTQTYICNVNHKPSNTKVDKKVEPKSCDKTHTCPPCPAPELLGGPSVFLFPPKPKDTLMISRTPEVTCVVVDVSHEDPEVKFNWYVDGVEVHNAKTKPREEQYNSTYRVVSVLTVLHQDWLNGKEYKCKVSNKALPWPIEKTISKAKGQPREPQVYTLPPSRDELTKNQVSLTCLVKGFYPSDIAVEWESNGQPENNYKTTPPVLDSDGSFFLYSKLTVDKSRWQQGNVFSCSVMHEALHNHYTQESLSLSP
light: B1 light
notes: also called Ho Ab A330_20W
B14: GpH7-B3 variant I332_19Q/GpL16-k0 (antibody, human IgG1, kappa)
heavy: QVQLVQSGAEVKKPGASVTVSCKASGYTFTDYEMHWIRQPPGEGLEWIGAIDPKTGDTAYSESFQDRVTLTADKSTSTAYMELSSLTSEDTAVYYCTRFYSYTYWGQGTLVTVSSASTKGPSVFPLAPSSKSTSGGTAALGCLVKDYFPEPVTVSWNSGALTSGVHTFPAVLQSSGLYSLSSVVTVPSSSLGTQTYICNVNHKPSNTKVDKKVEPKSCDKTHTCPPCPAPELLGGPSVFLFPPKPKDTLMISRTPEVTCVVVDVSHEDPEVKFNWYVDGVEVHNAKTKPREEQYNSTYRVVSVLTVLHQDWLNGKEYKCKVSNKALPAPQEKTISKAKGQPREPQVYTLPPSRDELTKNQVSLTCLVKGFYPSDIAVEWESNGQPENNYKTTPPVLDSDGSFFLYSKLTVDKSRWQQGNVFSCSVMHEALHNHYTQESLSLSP
light: B1 light
notes: also called Ho Ab I332_19Q
B15: GpH7-B3 variant K334_13S/GpL16-k0 (antibody, human IgG1, kappa)
heavy: not shown
light: B1 light
notes: also called Ho Ab K334_13S
B16: GpH7-B3 variant I336_18N/GpL16-k0 (antibody, human IgG1, kappa)
heavy: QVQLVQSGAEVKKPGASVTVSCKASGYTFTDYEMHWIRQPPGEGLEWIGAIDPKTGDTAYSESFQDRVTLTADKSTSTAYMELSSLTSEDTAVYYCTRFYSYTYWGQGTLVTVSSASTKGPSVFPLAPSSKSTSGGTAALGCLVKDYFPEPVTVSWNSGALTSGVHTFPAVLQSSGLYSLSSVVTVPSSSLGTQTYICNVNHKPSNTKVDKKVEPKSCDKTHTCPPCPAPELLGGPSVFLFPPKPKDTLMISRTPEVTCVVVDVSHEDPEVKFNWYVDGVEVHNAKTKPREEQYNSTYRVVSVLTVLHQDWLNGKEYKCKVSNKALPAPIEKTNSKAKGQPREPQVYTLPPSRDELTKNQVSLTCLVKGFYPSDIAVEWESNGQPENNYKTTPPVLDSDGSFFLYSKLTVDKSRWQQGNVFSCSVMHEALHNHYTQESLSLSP
light: B1 light
notes: also called Ho Ab I336_18N
B17: GpH7-B3 variant K326_15Y/GpL16-k0 (antibody, human IgG1, kappa)
heavy: not shown
light: B1 light
notes: also called Ho Ab K326_15Y
B18: GpH7-B3 variant K326_03V/GpL16-k0 (antibody, human IgG1, kappa)
heavy: not shown
light: B1 light
notes: also called Ho Ab K326_03V
B19: GpH7-B3 variant K334_05P/GpL16-k0 (antibody, human IgG1, kappa)
heavy: not shown
light: B1 light
notes: also called Ho Ab K334_05P
B20: GpH7-B3 variant K334_16H/GpL16-k0 (antibody, human IgG1, kappa)
heavy: not shown
light: B1 light
notes: also called Ho Ab K334_16H
B21: GpH7-B3 variant I332_01G/GpL16-k0 (antibody, human IgG1, kappa)
heavy: not shown
light: B1 light
notes: also called Ho Ab I332_01G
B22: GpH7-B3 variant A330_04F/GpL16-k0 (antibody, human IgG1, kappa)
heavy: not shown
light: B1 light
notes: also called Ho Ab A330_04F
B23: GpH7-B3 variant I336_14T/GpL16-k0 (antibody, human IgG1, kappa)
heavy: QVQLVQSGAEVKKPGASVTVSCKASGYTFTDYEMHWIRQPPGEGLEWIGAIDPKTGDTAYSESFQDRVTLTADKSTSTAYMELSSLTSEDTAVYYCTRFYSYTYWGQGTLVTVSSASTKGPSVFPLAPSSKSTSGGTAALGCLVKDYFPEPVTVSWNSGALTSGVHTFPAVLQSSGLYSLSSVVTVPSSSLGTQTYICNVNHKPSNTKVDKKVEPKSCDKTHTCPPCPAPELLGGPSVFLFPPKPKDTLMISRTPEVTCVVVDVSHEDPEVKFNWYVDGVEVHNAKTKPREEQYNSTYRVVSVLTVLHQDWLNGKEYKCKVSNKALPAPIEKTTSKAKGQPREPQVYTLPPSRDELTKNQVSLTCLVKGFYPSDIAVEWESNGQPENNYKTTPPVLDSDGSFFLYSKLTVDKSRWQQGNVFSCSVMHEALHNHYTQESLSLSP
light: B1 light
notes: also called Ho Ab I336_14T
B24: GpH7-B3 variant K326_08L/GpL16-k0 (antibody, human IgG1, kappa)
heavy: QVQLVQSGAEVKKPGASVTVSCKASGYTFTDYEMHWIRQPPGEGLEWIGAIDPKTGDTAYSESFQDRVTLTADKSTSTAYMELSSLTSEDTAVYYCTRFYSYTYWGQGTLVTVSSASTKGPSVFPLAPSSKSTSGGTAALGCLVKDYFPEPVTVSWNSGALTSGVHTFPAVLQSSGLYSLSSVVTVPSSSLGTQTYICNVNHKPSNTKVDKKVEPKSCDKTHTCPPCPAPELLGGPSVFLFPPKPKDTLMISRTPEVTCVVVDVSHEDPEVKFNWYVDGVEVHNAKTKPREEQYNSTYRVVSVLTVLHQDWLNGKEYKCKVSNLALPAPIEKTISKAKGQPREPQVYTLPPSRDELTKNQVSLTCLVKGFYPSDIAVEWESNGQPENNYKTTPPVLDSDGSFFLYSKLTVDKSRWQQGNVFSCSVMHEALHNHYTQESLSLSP
light: B1 light
notes: also called Ho Ab K326_08L
B25: GpH7-A5/GpH7-B3 variant Y300_18N/GpL16-k0 (antibody, human IgG1, kappa)
heavy 1: not shown
heavy 2: not shown
light: B1 light
notes: also called He Ab

This passage reports Ho/Con_3a and He/Con_2aR results from patent US20150344570A1 (published 2015).

In one experiment the target is T2, FcγRIIIa extracellular domain with C-terminal His tag (human, UniProt P08637 17-208).
T2 construct: extracellular domain; also called FcgRIIIa; 3a; not shown: His tag attached to the C terminus
T2 sequence (P08637 17-208): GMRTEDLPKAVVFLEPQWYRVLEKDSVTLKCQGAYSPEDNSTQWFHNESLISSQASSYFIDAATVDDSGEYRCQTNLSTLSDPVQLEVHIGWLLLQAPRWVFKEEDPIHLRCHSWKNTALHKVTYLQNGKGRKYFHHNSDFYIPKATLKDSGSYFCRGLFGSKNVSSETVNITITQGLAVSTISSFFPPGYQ
In words: SPR Biacore, captured antibody, FcγR analyte, relative binding. The procedure: Analysis of interaction between objective antibody and the FcγR was carried out using Biacore T100 (GE Healthcare). HBS-EP+ (GE Healthcare) was used as the running buffer, and the measurement temperature was set to 25° C. Chips produced by immobilizing the antigen peptide by the amine coupling method to a Series S Sencor Chip CM5 (GE Healthcare), or alternatively, chips produced by allowing preliminarily biotinylated antigen peptides to interact with and immobilize onto a Series S Sensor Chip SA (certified) (GE Healthcare) were used. Antibodies of interest were captured onto an antigen peptide-immobilized chip, and allowed to interact to each FcγR diluted with running buffer. To regenerate and repeatedly use the chip, the antibodies captured on the chip were washed off by reacting 10 mM glycine-HCl, pH 1.5.
A general note: In SPR one partner is held on a chip, and binding of the other changes the refractive index at the surface.
As to B1, the Ho/Con_3a is 180 % of HoCon Ab GpH7-B3/GpL16-k0 (=100).

B2: the Ho/Con_3a is 220 % of HoCon Ab GpH7-B3/GpL16-k0 (=100).

Consider B3, for which the Ho/Con_3a is 147 % of HoCon Ab GpH7-B3/GpL16-k0 (=100).

For the molecule B4, the Ho/Con_3a was 107 % of HoCon Ab GpH7-B3/GpL16-k0 (=100).

As to B5, the Ho/Con_3a is 138 % of HoCon Ab GpH7-B3/GpL16-k0 (=100).

As for B6, the Ho/Con_3a was 154 % of HoCon Ab GpH7-B3/GpL16-k0 (=100).

As to B7, the Ho/Con_3a was 111 % of HoCon Ab GpH7-B3/GpL16-k0 (=100).

With B8, the Ho/Con_3a was 255 % of HoCon Ab GpH7-B3/GpL16-k0 (=100).

B9: the Ho/Con_3a is 163 % of HoCon Ab GpH7-B3/GpL16-k0 (=100).

For B10, the Ho/Con_3a is 156 % of HoCon Ab GpH7-B3/GpL16-k0 (=100).

B11: the Ho/Con_3a is 130 % of HoCon Ab GpH7-B3/GpL16-k0 (=100).

In the case of B12, the Ho/Con_3a is 278 % of HoCon Ab GpH7-B3/GpL16-k0 (=100).

Consider B13, for which the Ho/Con_3a was 118 % of HoCon Ab GpH7-B3/GpL16-k0 (=100).

As to B14, the Ho/Con_3a is 118 % of HoCon Ab GpH7-B3/GpL16-k0 (=100).

For B15, the Ho/Con_3a is 153 % of HoCon Ab GpH7-B3/GpL16-k0 (=100).

In the case of B16, the Ho/Con_3a is 101 % of HoCon Ab GpH7-B3/GpL16-k0 (=100).

As for B17, the Ho/Con_3a is 115 % of HoCon Ab GpH7-B3/GpL16-k0 (=100).

In the case of B18, the Ho/Con_3a was 137 % of HoCon Ab GpH7-B3/GpL16-k0 (=100).

Regarding B19, the Ho/Con_3a is 165 % of HoCon Ab GpH7-B3/GpL16-k0 (=100).

Regarding B20, the Ho/Con_3a is 153 % of HoCon Ab GpH7-B3/GpL16-k0 (=100).

On to B21, for which the Ho/Con_3a was 104 % of HoCon Ab GpH7-B3/GpL16-k0 (=100).

For the molecule B22, the Ho/Con_3a was 174 % of HoCon Ab GpH7-B3/GpL16-k0 (=100).

As to B23, the Ho/Con_3a was 123 % of HoCon Ab GpH7-B3/GpL16-k0 (=100).

Turning to B24, the Ho/Con_3a was 114 % of HoCon Ab GpH7-B3/GpL16-k0 (=100).

A further experiment concerns the target T1, FcγRIIa R (FcγRIIa, allotype with Arg …). In words: SPR (Biacore), antibody captured on antigen peptide chip, FcγR as analyte; relative binding.
For B25, the He/Con_2aR is 100 % of GpH7-A5/GpH7-B3/GpL16-k0 (=100).
